Data on 94 variants can be found in the supplement of paper PMC10567573.

B1: BTBD1 (parent)
chain: TSAEIELPDVEPAAFLALLRFLYS
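Also: lentivirally expressed fusions sorted by FACS into six bins by GFP to DsRed ratio, PSI derived from sequencing read proportions per bin multiplied by bin number.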

Variants of B1 are the subject of the series. Put plainly: protein stability index of a GFP-peptide fusion (GPS, HEK-293T) (PSI 1-6); higher = more stable. The settings on record: c terminus: a fixed tail appended.
Consider TSAEIWLPDVEPAAFLALLRFLYS [E6W], for which the protein stability index came to 1.85.
For the variant TSAEISLPDVEPAAFLALLRFLYS [E6S], the protein stability index worked out at 2.49.
As for TSAEIYLPDVEPAAFLALLRFLYS [E6Y], the figure is 1.74.
As for TSAEITLPDVEPAAFLALLRFLYS [E6T], the figure is 2.1; as for TSAEIRLPDVEPAAFLALLRFLYS [E6R], 1.84; as for TSAEIVLPDVEPAAFLALLRFLYS [E6V], 1.67.
The result for TSAEIETPDVEPAAFLALLRFLYS [L7T] reads 1.75; that for TSAEIEIPDVEPAAFLALLRFLYS [L7I], 1.93; that for TSAEIECPDVEPAAFLALLRFLYS [L7C], 1.75.
Turning to TSAEIEVPDVEPAAFLALLRFLYS [L7V], the protein stability index amounted to 1.98.
As for TSAEIEFPDVEPAAFLALLRFLYS [L7F], the figure is 1.96; as for TSAEIEYPDVEPAAFLALLRFLYS [L7Y], 2.05.
Take TSAEIEMPDVEPAAFLALLRFLYS [L7M]: the protein stability index is 2.08.
In the case of TSAEIEHPDVEPAAFLALLRFLYS [L7H], the protein stability index came out at 2.22.
For TSAEIESPDVEPAAFLALLRFLYS [L7S], the protein stability index was 1.79.
On to TSAEIEWPDVEPAAFLALLRFLYS [L7W], for which the protein stability index is 2.02.
As to TSAEIEGPDVEPAAFLALLRFLYS [L7G], the protein stability index stood at 1.89.
As for TSAEIEPPDVEPAAFLALLRFLYS [L7P], the figure is 2.3.
As to TSAEIERPDVEPAAFLALLRFLYS [L7R], the protein stability index was found to be 2.28.
As for TSAEIEAPDVEPAAFLALLRFLYS [L7A], the figure is 1.88; as for TSAEIEQPDVEPAAFLALLRFLYS [L7Q], 1.96.
Consider TSAEIENPDVEPAAFLALLRFLYS [L7N], for which the protein stability index is 1.9.
Regarding TSAEIEKPDVEPAAFLALLRFLYS [L7K], the protein stability index is 2.31.
The result for TSAEIEDPDVEPAAFLALLRFLYS [L7D] reads 2.15; that for TSAEIEEPDVEPAAFLALLRFLYS [L7E], 1.63; that for TSAEIELPDVCPAAFLALLRFLYS [E11C], 1.1.
As for TSAEIELPDVLPAAFLALLRFLYS [E11L], the protein stability index came to 1.88.
The result for TSAEIELPDVNPAAFLALLRFLYS [E11N] reads 2.15; that for TSAEIELPDVDPAAFLALLRFLYS [E11D], 1.69.
With TSAEIELPDVFPAAFLALLRFLYS [E11F], the protein stability index was found to be 1.68.
TSAEIELPDVIPAAFLALLRFLYS [E11I]: the protein stability index is 2.38.
Consider TSAEIELPDVKPAAFLALLRFLYS [E11K], for which the protein stability index was 2.75.
As for TSAEIELPDVPPAAFLALLRFLYS [E11P], the figure is 1.98; as for TSAEIELPDVMPAAFLALLRFLYS [E11M], 1.32; as for TSAEIELPDVAPAAFLALLRFLYS [E11A], 1.84.
Consider TSAEIELPDVHPAAFLALLRFLYS [E11H], for which the protein stability index was 1.91.
For TSAEIELPDVGPAAFLALLRFLYS [E11G], the protein stability index was found to be 2.44.
In the case of TSAEIELPDPEPAAFLALLRFLYS [V10P], the protein stability index came out at 2.32.
As for TSAEIELPDTEPAAFLALLRFLYS [V10T], the figure is 2.01; as for TSAEIELPDGEPAAFLALLRFLYS [V10G], 2.23; as for TSAEIELPDQEPAAFLALLRFLYS [V10Q], 2.22.
As for TSAEIELPDAEPAAFLALLRFLYS [V10A], the figure is 1.8; as for TSAEIELPDMEPAAFLALLRFLYS [V10M], 1.95; as for TSAEIELPDIEPAAFLALLRFLYS [V10I], 1.8.
As for TSAEIELPDCEPAAFLALLRFLYS [V10C], the figure is 1.67; as for TSAEIELPDNEPAAFLALLRFLYS [V10N], 2.08.
Consider TSAEIELPDSEPAAFLALLRFLYS [V10S], for which the protein stability index stood at 2.78.
As for TSAEIELPDDEPAAFLALLRFLYS [V10D], the figure is 2.2; as for TSAEIELPDLEPAAFLALLRFLYS [V10L], 1.56.
TSAEIELPDEEPAAFLALLRFLYS [V10E]: the protein stability index was 2.35.
The result for TSAEIELPDYEPAAFLALLRFLYS [V10Y] reads 1.78; that for TSAEIELPDREPAAFLALLRFLYS [V10R], 2.09.
The result for TSAEIELPDWEPAAFLALLRFLYS [V10W] reads 1.62; that for TSAEIELPDFEPAAFLALLRFLYS [V10F], 1.82; that for TSAEIELPDKEPAAFLALLRFLYS [V10K], 1.69.
As for TSAEIELPDHEPAAFLALLRFLYS [V10H], the figure is 1.65.
With TSAEIELYDVEPAAFLALLRFLYS [P8Y], the protein stability index amounted to 2.37.
The result for TSAEIELADVEPAAFLALLRFLYS [P8A] reads 1.97; that for TSAEIELMDVEPAAFLALLRFLYS [P8M], 1.9; that for TSAEIELVDVEPAAFLALLRFLYS [P8V], 2.48.
Regarding TSAEIELLDVEPAAFLALLRFLYS [P8L], the protein stability index came out at 1.26.
As for TSAEIELDDVEPAAFLALLRFLYS [P8D], the figure is 1.95; as for TSAEIELSDVEPAAFLALLRFLYS [P8S], 2.06; as for TSAEIELFDVEPAAFLALLRFLYS [P8F], 2.23.
The result for TSAEIELIDVEPAAFLALLRFLYS [P8I] reads 1.62; that for TSAEIELWDVEPAAFLALLRFLYS [P8W], 1.53.
As for TSAEIELRDVEPAAFLALLRFLYS [P8R], the protein stability index is 1.93.
TSAEIELGDVEPAAFLALLRFLYS [P8G]: the protein stability index is 1.96.
As for TSAEIELQDVEPAAFLALLRFLYS [P8Q], the protein stability index came out at 1.76.
The result for TSAEIELHDVEPAAFLALLRFLYS [P8H] reads 1.63.
As for TSAEIELEDVEPAAFLALLRFLYS [P8E], the figure is 2.17; as for TSAEIELTDVEPAAFLALLRFLYS [P8T], 1.74.
The result for TSAEIELCDVEPAAFLALLRFLYS [P8C] reads 1.49; that for TSAEIELNDVEPAAFLALLRFLYS [P8N], 1.92; that for TSAEIELKDVEPAAFLALLRFLYS [P8K], 1.46.
With TSAEIELPLVEPAAFLALLRFLYS [D9L], the protein stability index turned out to be 1.63.
In the case of TSAEIELPIVEPAAFLALLRFLYS [D9I], the protein stability index was 1.49.
In the case of TSAEIELPYVEPAAFLALLRFLYS [D9Y], the protein stability index was determined as 1.33.
The result for TSAEIELPVVEPAAFLALLRFLYS [D9V] reads 1.95; that for TSAEIELPKVEPAAFLALLRFLYS [D9K], 1.98.
The result for TSAEIELPPVEPAAFLALLRFLYS [D9P] reads 2.4; that for TSAEIELPNVEPAAFLALLRFLYS [D9N], 2; that for TSAEIELPHVEPAAFLALLRFLYS [D9H], 2.
The result for TSAEIELPCVEPAAFLALLRFLYS [D9C] reads 1.62; that for TSAEIELPMVEPAAFLALLRFLYS [D9M], 2.11.
With TSAEIELPTVEPAAFLALLRFLYS [D9T], the protein stability index was found to be 2.55.
As for TSAEIELPAVEPAAFLALLRFLYS [D9A], the figure is 1.84; as for TSAEIELPFVEPAAFLALLRFLYS [D9F], 2.23; as for TSAEIELPEVEPAAFLALLRFLYS [D9E], 2.19.
In the case of TSAEIELPQVEPAAFLALLRFLYS [D9Q], the protein stability index came out at 2.45.
Regarding TSAEIELPSVEPAAFLALLRFLYS [D9S], the protein stability index is 2.12.
The result for TSAEIELPGVEPAAFLALLRFLYS [D9G] reads 1.92; that for TSAEIELPWVEPAAFLALLRFLYS [D9W], 2.12.
As for TSAEIELPRVEPAAFLALLRFLYS [D9R], the figure is 2.24.
